Measurements published in patent US20040014147A1 (RIGEL PHARMACEUTICALS, published 2004).
Where two headings read alike, the source gives them in different places. Where no end group is shown, it is not given here.

Legend:
human adenosine kinase [1] = target: T1, human adenosine kinase (human, UniProt P55263 22-362); assay: cell-based or functional assay
human adenosine kinase [2] = target: T1, human adenosine kinase; assay: cell-based or functional assay; remark: listed apart in the source

T1 sequence (P55263 other isoform, or with tags, fused parts or gaps): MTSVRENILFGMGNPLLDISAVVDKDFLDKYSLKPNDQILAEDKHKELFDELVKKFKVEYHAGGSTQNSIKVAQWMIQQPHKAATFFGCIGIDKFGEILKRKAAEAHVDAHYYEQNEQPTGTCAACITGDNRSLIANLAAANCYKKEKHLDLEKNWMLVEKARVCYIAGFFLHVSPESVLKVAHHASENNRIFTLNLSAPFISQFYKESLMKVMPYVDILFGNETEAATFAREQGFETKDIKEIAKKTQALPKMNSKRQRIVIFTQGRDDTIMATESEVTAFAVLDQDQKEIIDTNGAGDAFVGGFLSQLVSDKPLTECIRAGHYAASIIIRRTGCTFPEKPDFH

B1: peptide AR02E8 wt (peptide, not shown: large carriers)
peptide: DTMQVQCGVCRSGYVVAFWDVGP
modifications: cysteine pairing not given here; also: expressed as GAL4/BFP-linker-peptide fusion, fusion sequences not given here
With B1 the “Reporter Ratio” value (human adenosine kinase [1]) was 2.93, the Reporter Ratio (human adenosine kinase [2]) was 1.77 and the “endogenous ε inhibition ratio” value (human adenosine kinase [2]) was 15.3.

With DTMQVQCGVCRSGAGVAFWDVGP (peptide, not shown: large carriers) [peptide AR02E8YV] the “Reporter Ratio” value (human adenosine kinase [1]) was 1.07.

DTMQVQCGAGRSGYVVAFWDVGP (peptide, not shown: large carriers) [peptide AR02E8VC] was tested, and the “Reporter Ratio” value (human adenosine kinase [1]) was 1.13.

With DTMQVQCGVCAGGYVVAFWDVGP (peptide, not shown: large carriers) [peptide AR02E8RS] the “Reporter Ratio” value (human adenosine kinase [1]) was 1.46.
